Source: patent US20110092413A1, “Albumin-Fused Kunitz Domain Peptides” (Novozymes Biopharma DK A/S, priority 2002, published 2011)

Assays:
[1] = Serum half-time of DX-88; details: in vivo
[2] = target: human plasma kallikrein (Homo sapiens, UniProt P03952); assay: DX-88 inhibition of human plasma kallikrein; assay type: biochemical
[3] = DX-88 tested in the clinic for treatment of hereditary angioedema (HAE); assay type: in vivo, human
[4] = rabbit, in vivo
From the text: (§1) After radiolabeling, the two labeled protein preparations were purified from unbound label by size exclusion chromatography (SEC). Fractions from the SEC column having the highest radioactivity were pooled. The purified, radiolabeled preparations were characterized for specific activity by scintillation counting and for purity by SEC using a Superose-12 column equipped with an in-line radiation detector.
(§2) New Zealand White rabbits (ca. 2.5 Kg) were used for clearance measurements, with one animal each used for of the two labeled protein preparations. The radiolabeled preparation was injected into the animal via an ear vein. One blood sample was collected per animal per time point with early time points at approximately 0, 7, 15, 30, and 90 minutes and later time points at 4, 8, 16, 24, 48, 72, 96, 144, 168, and 192 hours. Samples (about 0.5 ml) were collected into anticoagulant (EDTA) tubes. Cells were separated from the plasma/serum fraction by centrifugation. The plasma fraction was divided into two aliquots. One plasma aliquot was stored at −70° C. and the other aliquot was kept at 4° C. for immediate analyses. Sample analyses included radiation counting for clearance rate determinations and SEC chromatography for in vivo stability.

[5] = Pharmacokinetic study in rabbits: plasma clearance of 125I-labeled protein, SEC of plasma
From the text: as §1, §2

[6] = target: T1, human neutrophil elastase (Homo sapiens, UniProt P08246); details: Table 4, Biological Activity; read-out: Inhibition of human neutrophil elastase, Ki; cited from earlier work
T1 sequence (P08246 30-267): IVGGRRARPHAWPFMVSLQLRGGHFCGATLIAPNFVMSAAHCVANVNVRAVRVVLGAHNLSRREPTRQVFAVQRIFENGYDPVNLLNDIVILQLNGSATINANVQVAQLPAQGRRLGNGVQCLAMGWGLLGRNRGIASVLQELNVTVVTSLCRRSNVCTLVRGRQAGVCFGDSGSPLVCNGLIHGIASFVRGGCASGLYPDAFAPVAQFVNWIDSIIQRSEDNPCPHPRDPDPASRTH

[7] = test system: Pseudomonas aeruginosa; details: rat model of CF, after seven days of treatment (Cantin and Woods 1999); cited from earlier work
[8] = about 840 mg BPTI, 80 open-heart surgery patients (Fraedrich et al.); cited from earlier work

Chain of human plasma kallikrein (P03952 391-638 limits assumed): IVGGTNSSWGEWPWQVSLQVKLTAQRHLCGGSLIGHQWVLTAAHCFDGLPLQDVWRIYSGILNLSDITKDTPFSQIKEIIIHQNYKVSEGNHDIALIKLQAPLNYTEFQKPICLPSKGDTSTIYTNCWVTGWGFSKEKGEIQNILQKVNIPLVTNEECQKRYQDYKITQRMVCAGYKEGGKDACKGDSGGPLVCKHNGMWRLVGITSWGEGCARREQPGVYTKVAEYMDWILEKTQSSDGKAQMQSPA
Chain of human plasma kallikrein (P03952 20-390 partner limits assumed): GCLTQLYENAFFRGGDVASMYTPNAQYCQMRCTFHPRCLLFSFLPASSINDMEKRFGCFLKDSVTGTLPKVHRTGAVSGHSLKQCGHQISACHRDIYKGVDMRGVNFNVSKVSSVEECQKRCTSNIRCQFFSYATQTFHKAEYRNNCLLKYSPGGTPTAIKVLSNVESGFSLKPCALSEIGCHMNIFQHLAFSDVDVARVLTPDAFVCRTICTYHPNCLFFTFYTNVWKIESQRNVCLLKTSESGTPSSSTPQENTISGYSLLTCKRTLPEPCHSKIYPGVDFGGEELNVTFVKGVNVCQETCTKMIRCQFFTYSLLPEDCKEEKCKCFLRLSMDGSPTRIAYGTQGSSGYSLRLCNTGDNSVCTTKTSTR

DX-88: Kunitz domain derived from the first Kunitz domain of human LACI, inhibits human plasma kallikrein, SEQ ID NO:48 (EAMHSFCAFKADDGPCRAAHPRWFFNIFTRQCEEFIYGGCEGNQNRFESLEECKKMCTRD; Description of Sequence DX-88 Kunitz domain peptide)
serum half-time [1]: not more than 1 hour
Ki [2]: ~0.04 nM
initial clinical data in HAE [3]: safe and effective

DX-890: Kunitz domain peptide, inhibitor of human neutrophil elastase, SEQ ID NO:20 (EACNLPIVRGPCIAFFPRWAFDAVKGKCVLFPYGGCQGNGNKFYSEKECREYCGVP; Description of Sequence DX-890 Kunitz domain peptide)
% α [4]: 75%
% β [4]: 25%
in vivo stability by SEC analysis of plasma ([5]; FIG. 6): relatively rapid association of label with higher molecular weight plasma components
T1/2β ([5]; restated in hours): 2.75 h
Ki [6]: ~0.005 nM

alpha1 antitrypsin
bacterial counts [7]: 0.2±0.4

bovine pancreatic trypsin inhibitor [BPTI]
decrease of mean amount transfused [8]: 74%
reduction of blood loss [8]: almost half
